Assay results taken from PMC7886318, “Nanobody generation and structural characterization of Plasmodium falciparum 6-cysteine protein Pf12p” (Biochemical Journal, 2021).
Changes are numbered by the printed parent chain.

T1: His-tagged Pf41 (Plasmodium falciparum, UniProt Q8I1Y0 21-368)
T1 construct: Pf41, 6-cysteine protein of Plasmodium falciparum, residues K21-S368 (domains D1 and D2); The form loaded on Ni-NTA sensors for BLI; a TEV site stands between the His8 tag and Pf41; also called immobilized Pf41; source: Sf21 insect cells (baculovirus), purified following the protocol of Pf12p with some modifications; not shown: His8, N-terminal, kept
T1 sequence: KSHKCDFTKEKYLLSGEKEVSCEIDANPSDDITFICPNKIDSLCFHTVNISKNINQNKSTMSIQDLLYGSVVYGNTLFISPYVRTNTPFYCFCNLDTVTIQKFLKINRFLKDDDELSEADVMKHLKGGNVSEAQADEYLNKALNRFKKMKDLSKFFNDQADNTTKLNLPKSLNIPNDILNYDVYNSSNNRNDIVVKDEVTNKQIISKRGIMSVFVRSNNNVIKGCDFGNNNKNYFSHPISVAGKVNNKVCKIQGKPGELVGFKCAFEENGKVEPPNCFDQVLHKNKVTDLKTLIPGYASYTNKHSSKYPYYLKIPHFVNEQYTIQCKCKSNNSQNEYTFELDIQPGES

B1: Pf12 D1D2 (domain or fragment, Plasmodium falciparum, UniProt C6KSX0 28-304, looked up)
chain: NLTCDFNDVYKLEFHPNQQTSVTKLCNLTPNVLEKVTIKCGSDKLNYNLYPPTCFEEVYASRNMMHLKKIKEFVIGSSMFMRRSLTPNKINEVSFRIPPNMMPEKPIYCFCENKKTITINGSNGNPSSKKDIINRGIVEIIIPSLNEKVKGCDFTTSESTIFSKGYSINEISNKSSNNQQDIVCTVKAHANDLIGFKCPSNYSVEPHDCFVSAFNLSGKNENLENKLKLTNIIMDHYNNTFYSRLPSLISDNWKFFCVCSKDNEKKLVFTVEASISS
notes: Pf12, 6-cysteine protein of Plasmodium falciparum, residues N28-S304 (domains D1 and D2); Called untagged for the BLI; also called untagged Pf12 D1D2; recombinant Pf12; source: Sf21 insect cells (baculovirus), purified following the protocol of Pf12p with some modifications; not shown: His8, N-terminal, cleaved
B2: Pf12p D1D2 (domain or fragment)
chain: NGVCDFSSEGLSLLPEEKLDFSVSRNVDKLSDENNVRHCVHFSKGFEYLRFICPMRKDNYEGIEIRPVECFEYIHIEGREHKLSEILKGSLYEKSINDNIMTRDVFIPPTIYEDMFFECTCDNSLTFKNNMIGIRGIMKIHLKKNILYGCDFDHDEKLMKNKTAFTNFYDKQKILPLIGNNNNDDDNNDDDNNNDNNNNDNNNNNNNNNNNNNNNNNNNITCNVTIKKSQVYLGIICPDGYTLYPNDCFKNVIYDNNIIIPLKKIIPHDILYHQDKNKRITFASFTLNINENPPGFTCYCIKDQTNINNPLIVNFHFS
B3: nanobody B9 (VHH)
VHH: QVQLQESGGGLVQAGGSLRLSCTASGRTFSNTVMGWFRQAPGKEREFLAHILWSGGLAYYADSVKGRFTISRDNAKNIVYLQMNSLKPEDTAVYYCAARDFGFGNNYDYWGQGTQVTVSS
notes: From a phage library (pMES4 phagemid) of an alpaca immunized with Pf12p D1D2; also called Nb B9; source: E. coli WK6, periplasmic extract, purified (HisTrap, SEC)
B4: nanobody G6 (VHH)
VHH: QVQLQESGGGLVQPGGSLRLSCEVSGSIFSIDAMAWYRQAPGKQRELVAAILSGGSTNYADSVKGRFAISRDNAKNTGYLQMNSLKPEDTAVYYCNAEGRVSGWGPTEYDYWGQGTQVTVSS
notes: From a phage library (pMES4 phagemid) of an alpaca immunized with Pf12p D1D2; source: E. coli WK6, periplasmic extract, purified (HisTrap, SEC)
B5: nanobody A10 (VHH)
VHH: QVQLQESGGGLVQPGGSLRLSCAASGIIFSSNTMGWYRQAPGKQRELVASFSGETGANYADSVKGRFIIRRDNAKNAVYLLMNSLKPDDTAAYYCHADRFGTDYWGQGTQVTVSS
notes: as for B4
B6: nanobody B12 (VHH)
VHH: QVQLQESGGGLVQAGGSLRLSCAASGRTFSSLTMGWFRQAPGKEREFVAGNAWNWSDGTTYYADSVRGRFTISRDNAKKTVYLQMNSLKPEDTAVYYCACAGDRPRVRVPVNSNDYDYWGQGTQVTVSS
notes: as for B4
B7: nanobody C4 (VHH)
VHH: QVQLQESGGGLVQPGESLRLSCAASTSIFTVYTMGWYRQAPGKLREWVADVTVGDNRDYVDSVKGRFTISRDNATNTVYLQMNNVKPEDTAVYYCNRVPPGPSGSWGQGTQVTVSS
notes: as for B4
B8: nanobody D9 (VHH)
VHH: QVQLQESGGGLVQPGGSLRLSCAASGIIFSSHVMGWYRQAPGKQRELVASFSGDTGAKYADSVKGRFIIRRENAKNMVTLYLQMNSLKPEDTAAYYCHVDRFGTEYWGQGTQVTVSS
notes: as for B4
B9: nanobody H7 (VHH)
VHH: QVQLQESGGGLVQAGGSLRLSCAASGRTSSSYAVAWFRQAPGKERQFVATIGYDGVTSYYEDSVEGRFTISRDNAKSMVYLQMNSLKPEDTAVYYCGRDRVPGHTWLARPSQADFGSWGQGTQVTVSS
notes: as for B4
B10: nanobody B2 (VHH)
VHH: QVQLQESGGGLVQPGGSLRLSCAASGSAFSRVAMGWYRQAPGKLREYVADITRGGTTDYADSVKGRFTISRDNAKNTIYLQMDSLKPEDTAVYYCNLVPPIRGGYWGQGTQVTVSS
notes: as for B4
B11: nanobody C12 (VHH)
VHH: B10 VHH with I78V, Y79F, L97S
notes: as for B4
B12: nanobody F7 (VHH)
VHH: QVQLQESGGGLVQPGGSLRLSCAASGSAFSRVAMGWYRQAPGKLREYVADITYGGATDYADSVKGRFTISRDNAKNTIYLQMDSLKPEDTAVYYCNLVPPIGGYWGQGTQVTVSS
notes: as for B4

The binders below were run against T1, His-tagged Pf41 (assay: BLI; His-tagged Pf41 (10 or 20 ug/ml) loaded on Ni-NTA sensors; untagged Pf12 D1D2 or untagged Pf12p D1D2 in solution, 16-500 nM or 31-1000 nM; PBS pH 7.4, 0.1% BSA, 0.05% Tween-20, 25 C; 1:1 fit). Conditions: both partners purified.

Row | Binder | Kd [nM]
1 | B1 | 144 ± 22.6

Each binder was assayed against Nine out of 10 nanobodies (alpaca) (assay: BLI; Octet RED96e; nanobodies (5 ug/ml) loaded on Ni-NTA sensors; untagged Pf12p D1D2 6-200 nM in solution (13-400 nM for A10); PBS pH 7.4, 0.1% BSA, 0.05% Tween-20, 25 C; global 1:1 fit; mean of three experiments). Conditions: not given.

Row | Binder | Kd [nM] | kon [M⁻¹ s⁻¹]
2 | B2 | 3 | 100000

Each binder was assayed against T2, Pf12p D1D2 (Plasmodium falciparum, UniProt C6KSX1) in the same assay as above. Conditions: both partners purified.
T2 construct: also called recombinant Pf12p; untagged Pf12p D1D2; source: Sf21 insect cells (baculovirus, secreted), purified (Ni-NTA, TEV cleavage, SEC); not shown: His8, N-terminal, cleaved

Row | Binder | binding result | Kd [nM]
3 | B3 | binds | –
4 | B4 | binds | –
5 | B5 | – | ~105
6 | B6 | binds | –
7 | B7 | binds | –
8 | B8 | binds | –

Each binder was assayed against T2, Pf12p D1D2 (assay: ELISA; MaxiSorp wells coated with 65 nM recombinant protein (Pf12p D1D2, Pf12p D2, Pf12 or Pf41) in PBS; 65 nM nanobody, 1 h at RT; bound nanobody detected with mouse anti-His and HRP-conjugated anti-mouse; duplicates). Conditions: both partners purified.

Row | Binder | binding result
9 | B9 | binds

Each binder was assayed against T3, Pf12p D2 (Plasmodium falciparum (3D7 entry …, UniProt C6KSX1)) in the same assay as above. Conditions: both partners purified.
T3 construct: Pf12p, 6-cysteine protein of Plasmodium falciparum, amino acids N168-S341: the C-terminal domain D2 only; Same vector and protocol as Pf12p D1D2; source: Sf21 insect cells (baculovirus, secreted), purified (Ni-NTA, TEV cleavage, SEC); not shown: His8, N-terminal, cleaved

Row | Binder | binding result
10 | B3 | binds
11 | B4 | binds
12 | B7 | binds
13 | B9 | binds
14 | B10 | binds
15 | B11 | binds
16 | B12 | binds

These binders were tested against T4, Pf12 D1D2 (Plasmodium falciparum, UniProt C6KSX0) in the same assay as above. Conditions: both partners purified.
T4 construct: Pf12, 6-cysteine protein of Plasmodium falciparum, residues N28-S304 (domains D1 and D2); Called untagged for the BLI; also called untagged Pf12 D1D2; recombinant Pf12; source: Sf21 insect cells (baculovirus), purified following the protocol of Pf12p with some modifications; not shown: His8, N-terminal, cleaved

Row | Binder | binding result
17 | B3 | no binding (tested: 65 nM)
18 | B4 | no binding (tested: 65 nM)
19 | B5 | no binding (tested: 65 nM)
20 | B6 | no binding (tested: 65 nM)
21 | B7 | no binding (tested: 65 nM)
22 | B9 | no binding (tested: 65 nM)
23 | B10 | no binding (tested: 65 nM)
24 | B11 | no binding (tested: 65 nM)
25 | B12 | no binding (tested: 65 nM)
26 | B8 | no binding (tested: 65 nM)

The binders below were run against T5, Pf41 D1D2 (Plasmodium falciparum, UniProt Q8I1Y0) in the same assay as above. Conditions: both partners purified.
T5 construct: Pf41, 6-cysteine protein of Plasmodium falciparum, residues K21-S368 (domains D1 and D2); The Pf41 of the ELISA and of the SEC study; also called recombinant Pf41; source: Sf21 insect cells (baculovirus), purified following the protocol of Pf12p with some modifications

Row | Binder | binding result
27 | B3 | no binding (tested: 65 nM)
28 | B4 | no binding (tested: 65 nM)
29 | B5 | no binding (tested: 65 nM)
30 | B6 | no binding (tested: 65 nM)
31 | B7 | no binding (tested: 65 nM)
32 | B9 | no binding (tested: 65 nM)
33 | B10 | no binding (tested: 65 nM)
34 | B11 | no binding (tested: 65 nM)
35 | B12 | no binding (tested: 65 nM)
36 | B8 | no binding (tested: 65 nM)

The binders below were run against T2, Pf12p D1D2 (assay: far-Western, overlay or dot blot; purified Pf12p D1D2 run on 4-12% Bis-Tris SDS-PAGE under reduced and non-reduced conditions, blotted on PVDF, probed with 0.5 ug/ml nanobody, detected with HRP-conjugated goat anti-llama IgG). Conditions: both partners purified.

Row | Binder | binding result
37 | B10 | binds
38 | B11 | binds
39 | B12 | binds
